Measurements taken from patent US20070020327A1.
Blank lines part the entries; values can stand above or below the binder they belong to.

Tests used:
HLA-A*6802 (human) [1] = assay: inhibition of 125I-standard peptide binding to purified HLA, gel filtration
HLA-A*0203 (human) [2] = assay: as above
HLA-A*0201 (human) [3] = assay: as above
HLA-A*1101 (human) [4] = assay: competition with 125I-labeled standard peptide for purified HLA-A*1101, gel filtration; relative binding
HLA-A*1101 (human) [5] = assay: competition with 125I-labelled standard peptide 940.06 ([..], IC50 […] nM) for purified HLA-A*1101; gel filtration
HLA-A*6802 (human) [6] = assay: competitive inhibition of 125I-labelled standard peptide binding to purified HLA, gel filtration
HLA-A*0206 (human) [7] = assay: as above
HLA-A*0202 (human) [8] = assay: as above
HLA-A*0201 (human) [9] = assay: competition with 125I-labelled standard peptide 941.01 for purified HLA-A*0201, gel filtration
HLA-A*0206 (human) [10] = assay: competition with 125I-labelled standard peptide 941.01 for purified HLA-A*0206, gel filtration
HLA-A*0203 (human) [11] = assay: competition with 125I-labelled standard peptide 941.01 for purified HLA-A*0203, gel filtration
HLA-A*6802 (human) [12] = assay: competition with 125I-labelled standard peptide 1072.34 for purified HLA-A*6802, gel filtration
HLA-A*0202 (human) [13] = assay: competition with 125I-labelled standard peptide 941.01 for purified HLA-A*0202, gel filtration
HLA-A*1101 (human) [14] = assay: inhibition of 125I-labeled probe peptide binding to purified HLA-A*1101, gel filtration; relative to standard peptide 940.06
HLA-A*0201 (human) [15] = assay: competition with 125I-labelled standard peptide 941.01 ([..]) for purified HLA-A*0201, gel filtration
HLA-A*0202 (human) [16] = assay: competition with 125I-labelled standard peptide 941.01 ([..]) for purified HLA-A*0202, gel filtration
HLA-A*0206 (human) [17] = assay: competition with 125I-labelled standard peptide 941.01 ([..]) for purified HLA-A*0206, gel filtration
[18] = target: HLA-A*0202 (purified HLA class I molecule) (human); assay: competition with 125I-labelled standard peptide for purified HLA, gel filtration
[19] = target: HLA-A*0206 (purified HLA class I molecule) (human); assay: as above
[20] = target: HLA-A*0201 (purified HLA class I molecule) (human); assay: as above
[21] = target: HLA-A*0203 (purified HLA class I molecule) (human); assay: as above
[22] = target: HLA-A*0101 molecule, purified from cell lysates (human); assay: competition with 125I-labelled standard peptide for purified HLA-A*0101, gel filtration
HLA-A*0101 (human) = assay: inhibition of 125I-labeled standard peptide 944.02 binding to purified HLA-A*0101, gel filtration
HLA-A*0203 (human) [23] = assay: competition binding to purified HLA, 125I-labelled standard peptide, gel filtration; ratio = IC50 standard / IC50 test peptide
HLA-A*0201 (human) [24] = assay: as above
HLA-A*0202 (human) [25] = assay: competition for purified HLA with 125I-labelled standard peptide 941.01 [..] as competitor, gel filtration; details: scale: ratio
HLA-A*0203 (human) [26] = assay: as above; details: scale: ratio
HLA-A*0201 (human) [27] = assay: as above; details: scale: ratio
HLA-A*6802 (human) [28] = assay: competition for purified HLA with 125I-labelled standard peptide 1072.34 [..] as competitor, gel filtration; details: scale: ratio
HLA-A*0301 (human) [29] = assay: competition with 125I-labelled standard peptide for purified HLA, gel filtration; details: scale: ratio
HLA-A*6801 (human) = assay: as above; details: scale: ratio
HLA-A*1101 (human) [30] = assay: as above; details: scale: ratio
HLA-A*3301 (human) = assay: as above; details: scale: ratio
HLA-A*1101 (human) [31] = assay: competition with a 125I-labelled probe peptide for purified HLA-A*1101, gel filtration; value relative to the standard peptide
HLA-A*0301 (human) [32] = assay: competition with 125I-labelled probe peptide for purified HLA-A*0301, gel filtration
HLA-A*0206 (human) [33] = assay: competition binding to purified HLA, 125I-labelled standard peptide, gel filtration; ratio = IC50 standard / IC50 test peptide; details: remark: other sources report otherwise
HLA-A*0202 (human) [34] = assay: as above; details: remark: other sources report otherwise
HLA-B*0702 (human) = assay: competition with 125I-labeled standard peptide (1075.23 [..]) for purified HLA-B*0702, gel filtration
HLA-A*0206 (human) [35] = assay: inhibition of 125I-standard peptide binding to purified HLA, gel filtration
HLA-A*0301 (human) [36] = assay: competition with 125I-labelled standard peptide for purified HLA-A*0301, gel filtration; relative binding
[37] = remark: other sources report otherwise

- binding affinity ratio (IC50 standard peptide / IC50 test peptide) (ratio to standard peptide) (HLA-A*6802 (human) [1]): -0.0001
- binding affinity ratio (IC50 standard peptide / IC50 test peptide) (ratio to standard peptide) (HLA-A*0203 (human) [2]): 0.0003
- binding affinity ratio (IC50 standard peptide / IC50 test peptide) (ratio to standard peptide) (HLA-A*0201 (human) [3]): 0.0003
Binder: LLSNDMCA (modifications not checked) [Kallikrein 178 LLSNDMCA]

- binding affinity ratio (IC50 of standard peptide / IC50 of test peptide) (HLA-A*1101 (human) [4]; [37]): 0.0002
Binder: KGEYFVEMY (modifications not checked) [PAP 322 …]

- binding affinity ratio (IC50 of standard peptide / IC50 of test peptide) (HLA-A*1101 (human) [5]): 0.0002
Binder: PANEYAYRR (modifications not checked) [PSM.273 peptide …]

- binding affinity ratio (ratio to standard peptide) (HLA-A*6802 (human) [6]): -0.0001
- binding affinity ratio (ratio to standard peptide) (HLA-A*0206 (human) [7]): 0.0002
- binding affinity ratio (ratio to standard peptide) (HLA-A*0202 (human) [8]): 0.0002
Binder: KITDVVKV (modifications not checked) [KITDVVKV (Kallikrein, position 131)]

- binding affinity ratio (IC50 of standard peptide / IC50 of test peptide) (HLA-A*0201 (human) [9]): -0.0001
- binding affinity ratio (IC50 of standard peptide / IC50 of test peptide) (HLA-A*0206 (human) [10]): 0.0001
- binding affinity ratio (IC50 of standard peptide / IC50 of test peptide) (HLA-A*0203 (human) [11]): 0.0003
- binding affinity ratio (IC50 of standard peptide / IC50 of test peptide) (HLA-A*6802 (human) [12]): -0.0001
- binding affinity ratio (IC50 of standard peptide / IC50 of test peptide) (HLA-A*0202 (human) [13]): -0.0001
Binder: RAYSEKVT (modifications not checked) [RAYSEKVT (Kallikrein, position 186)]

- binding affinity ratio (IC50 of standard peptide / IC50 of test peptide) (HLA-A*0201 (human) [9]): -0.0001
- binding affinity ratio (IC50 of standard peptide / IC50 of test peptide) (HLA-A*0206 (human) [10]): -0.0001
- binding affinity ratio (IC50 of standard peptide / IC50 of test peptide) (HLA-A*0203 (human) [11]): 0.0009
- binding affinity ratio (IC50 of standard peptide / IC50 of test peptide) (HLA-A*6802 (human) [12]): -0.0002
- binding affinity ratio (IC50 of standard peptide / IC50 of test peptide) (HLA-A*0202 (human) [13]): -0.0002
Binder: RLSEPAKIT (modifications not checked) [… (Kallikrein, position 125)]

- binding affinity ratio (IC50 of standard peptide / IC50 of test peptide) (HLA-A*1101 (human) [14]): 0.0002
Binder: DALFDIESK (modifications not checked) [PSM peptide … (position 710, 9 amino acids)]

- binding affinity ratio (IC50 of standard peptide / IC50 of test peptide) (HLA-A*0201 (human) [15]): -0.0001
- binding affinity ratio (IC50 of standard peptide / IC50 of test peptide) (HLA-A*0202 (human) [16]): 0.0009
- binding affinity ratio (IC50 of standard peptide / IC50 of test peptide) (HLA-A*0206 (human) [17]): 0.0005
Binder: TTCYASGWGSI (modifications not checked) [Kallikrein (hK2) peptide … (position 150, 11 amino acids); the same letters in PSA at position 146]

- binding affinity ratio (IC50 of standard peptide / IC50 of test peptide) [18]: 0.0012
- binding affinity ratio (IC50 of standard peptide / IC50 of test peptide) [19]: -0.0001
- binding affinity ratio (IC50 of standard peptide / IC50 of test peptide) [20]: 0.0006
- binding affinity ratio (IC50 of standard peptide / IC50 of test peptide) [21]: 0.0033
Binder: MLCAGRWT (modifications not checked) [PSA peptide MLCAGRWT (position 192, 8 amino acids)]

- binding affinity ratio (IC50 of standard peptide / IC50 of test peptide) (HLA-A*0201 (human) [9]): -0.0001
- binding affinity ratio (IC50 of standard peptide / IC50 of test peptide) (HLA-A*0206 (human) [10]): -0.0001
- binding affinity ratio (IC50 of standard peptide / IC50 of test peptide) (HLA-A*0203 (human) [11]): 0.0003
- binding affinity ratio (IC50 of standard peptide / IC50 of test peptide) (HLA-A*6802 (human) [12]): -0.0001
- binding affinity ratio (IC50 of standard peptide / IC50 of test peptide) (HLA-A*0202 (human) [13]): -0.0001
Binder: RAVCGGVL (modifications not checked) [RAVCGGVL (PSA, position 43)]

- binding affinity ratio (IC50 of the standard peptide / IC50 of the test peptide) [22]: 0.0001
Binder: GMPEGDLVY (modifications not checked) [PSM peptide … (position 168, 9 amino acids)]

- binding affinity ratio (IC50 of the standard peptide / IC50 of the test peptide) (HLA-A*0101 (human)): 0.001
Binder: PSLYTKVVHY (modifications not checked) [PSA 236 peptide …]

- binding affinity ratio (HLA-A*0203 (human) [23]): 0.0005
- binding affinity ratio (HLA-A*0201 (human) [24]): 0.0001
Binder: DTCGGDSGGPL (modifications not checked) [… (Kallikrein, position 207, 11 amino acids)]

- binding affinity ratio (HLA-A*0202 (human) [25]): 0.0005
- binding affinity ratio (HLA-A*0203 (human) [26]): 0.0005
- binding affinity ratio (HLA-A*0201 (human) [27]): 0.0002
- binding affinity ratio (HLA-A*6802 (human) [28]): -0.0001
Binder: GVLVHPQWVLT (modifications not checked) [… (Kallikrein position 52 / PSA position 48, 11-mer)]

- binding affinity ratio (HLA-A*0301 (human) [29]): 0.0002
- binding affinity ratio (HLA-A*6801 (human)): 0.0001
- binding affinity ratio (HLA-A*1101 (human) [30]): 0.0002
- binding affinity ratio (HLA-A*3301 (human)): 0.0006
Binder: PAELTDAVK (modifications not checked) [… (PSA, position 125)]

- binding affinity ratio (IC50 of standard peptide / IC50 of test peptide) (HLA-A*1101 (human) [31]): 0.0002
Binder: ETYELVEKFY (modifications not checked) [PSM peptide … (position 557, 10 amino acids)]

- binding affinity ratio (IC50 of the standard peptide / IC50 of the test peptide) (HLA-A*0301 (human) [32]): 0.0001
Binder: PANEYAYRR (modifications not checked) [PSM 273 peptide …]

- binding affinity ratio (IC50 of standard peptide / IC50 of test peptide) (HLA-A*1101 (human) [4]): 0.0002
Binder: LAGAKGVILY (modifications not checked) [PSM 219 …]

- binding affinity ratio (HLA-A*0206 (human) [33]): 0.0001
- binding affinity ratio (HLA-A*0202 (human) [34]): 0.018
- binding affinity ratio (HLA-A*0203 (human) [23]; [37]): 0.01
- binding affinity ratio (HLA-A*0201 (human) [24]; [37]): 0.0041
Binder: DLPTQEPALGT (modifications not checked) [… (PSA, position 136, 11 amino acids)]

- binding affinity ratio (IC50 of standard peptide / IC50 of test peptide) (HLA-B*0702 (human)): 0.0001
Binder: YPNKTHPNY (modifications not checked) [PSM peptide … (position 119, 9 amino acids)]

- binding affinity ratio (IC50 standard peptide / IC50 test peptide) (ratio to standard peptide) (HLA-A*6802 (human) [1]): -0.0001
- binding affinity ratio (IC50 standard peptide / IC50 test peptide) (ratio to standard peptide) (HLA-A*0206 (human) [35]): -0.0001
- binding affinity ratio (IC50 standard peptide / IC50 test peptide) (ratio to standard peptide) (HLA-A*0201 (human) [3]): 0.0002
Binder: LLRLSEPAKIT (modifications not checked) [Kallikrein 123 …]

- binding affinity ratio (IC50 of standard peptide / IC50 of test peptide) (HLA-A*1101 (human) [31]; [37]): 0.0002
Binder: ESYKHEQVY (modifications not checked) [PAP peptide … (position 95, 9 amino acids)]

- binding affinity ratio (IC50 of standard peptide / IC50 of test peptide) (HLA-A*1101 (human) [14]): 0.0006
Binder: CSPSCPLER (modifications not checked) [PAP peptide … (position 347, 9 amino acids)]

- binding affinity ratio (IC50 of the standard peptide / IC50 of the test peptide) (HLA-A*0301 (human) [36]): 0.0005
Binder: GFFLLGFLF (modifications not checked) [PSM peptide … (PSM position 31, 9 amino acids)]
